US20200407462A1 (MINERVA BIOTECHNOLOGIES, published 2020)
Substitutions are numbered along the chain they refer to.

T1: PSMGFR N+20/C-27 peptide
T1 construct: also called N+20/C-27 PSMGFR
T1 peptide: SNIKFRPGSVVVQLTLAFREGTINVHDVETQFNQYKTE

T2: PSMGFR N+9/C-9 peptide
T2 peptide: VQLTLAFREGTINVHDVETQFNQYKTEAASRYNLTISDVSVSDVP

T3: N-10 peptide (N-10 PSMGFR)
T3 construct: also called PSMGFR N-10
T3 peptide: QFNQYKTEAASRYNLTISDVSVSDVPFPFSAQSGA

T4: PSMGFR peptide (Primary Sequence of the MUC1 Growth Factor Receptor)
T4 peptide: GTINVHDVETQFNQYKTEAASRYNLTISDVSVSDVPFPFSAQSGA

T5: C-10 peptide (C-10 PSMGFR)
T5 construct: also called PSMGFR C-10
T5 peptide: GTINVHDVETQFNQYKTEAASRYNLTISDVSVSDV

B1: 31A1 monoclonal anti-MUC1* antibody (antibody, V domains shown)
VH: QVQLQQSGAELAKPGASVKMSCKASGYTFTSYWMHWVKQRPGQGLEWIGYINPSTGYTEYNQKFKDKATLTADKSSSTAYMQLSSLTSEDSAVYYCARAYIDYWGQGTTLTVSS
VL: DVLMTQTPLSLPVSLGDQASFSCRSSQSIVHSNGNTYLEWYLQKPGQSPKLLIYKVSNRFSGVPDRFSGSGSGTDFTLKINRVEAEDLGVYYCFQVSHFPWTFGGGTKLEIK
notes: Immunogen PSMGFR N+20/C-27 peptide; also called Antibody 31A1
B2: 39H5 monoclonal anti-MUC1* antibody (antibody, V domains shown)
VH: QIQLVQSGPELKKPGETVKISCKASGYTFTNYGMNWVKQAPGKGLKWMGWINTYTGEPTYVGDFKGRFAFSLETSASTAYLQINNLKNEDTATYFCVRGIHGYVDYWGQGTTLTVSS
VL: B1 VL with F21I, S32R, N81S, V96G, F99L
notes: Immunogen PSMGFR N+9/C-9 peptide; also called Antibody 39H5
B3: 25E6 monoclonal anti-MUC1* antibody (antibody, V domains shown)
VH: EVQLVESGGDLVKPGGSLKLSCAASGFTFSSYGMSWVRQTPDKRLEWVATISNGGRHTFYPDSVKGRFTISRDNAKNTLYLQMSSLKSEDTAMYLCVRQTGTEGWFAYWGQGTLVTVSA
VL: not shown
notes: Immunogen PSMGFR peptide; also called Antibody 25E6
B4: 18G12 monoclonal anti-MUC1* antibody (antibody, V domains shown)
VH: QVQLQQSGAELVKPGASVKLSCKASGYTFTGYFLYWVKQRPGQGLEWIGGINPDNGGIDFNEKFRNKATLTVDKSSSTAYMQLSSLTSEDSAVYYCTLLIGNYWGQGTTLTVSS
VL: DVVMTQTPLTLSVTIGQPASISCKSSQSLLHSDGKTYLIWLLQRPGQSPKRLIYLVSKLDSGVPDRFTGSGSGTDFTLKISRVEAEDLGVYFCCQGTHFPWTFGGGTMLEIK
notes: Immunogen PSMGFR peptide; also called Antibody 18G12
B5: 28F9 monoclonal anti-MUC1* antibody (antibody, V domains shown)
VH: B4 VH with S7P, K13Q, Q43H, N52H, D54S, G57D, I58T, R65K, K74I, N102V
VL: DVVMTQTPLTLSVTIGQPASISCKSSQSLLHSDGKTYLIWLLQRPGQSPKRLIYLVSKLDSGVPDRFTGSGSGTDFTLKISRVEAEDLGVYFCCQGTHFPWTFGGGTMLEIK
notes: Anti-PSMGFR antibody; also called Antibody 28F9
B6: 18B4 monoclonal anti-MUC1* antibody (antibody, V domains shown)
VH: EVKLEESGGGLVQPGGSMKLSCAASGFTFNDAWMDWVRQSPEKGLEWVAEIRSTANIHTTYYAESVQGRFTISRDDSKSSVYLQMNSLRAEDTGIYYCTPLLYGFAYWGQGTLVTVSA
VL: DVVMTQSPLSLPVSLGDQASISCRTSQSLVHSNGNTYLHWHLQKPGQSPKVLIYKVSSRFSGVPDRFSGSGSGTDFTLKISRVEAEDLGVYFCSQNTHVPYTFGGGTKLEIK
notes: Immunogen PSMGFR peptide; also called Antibody 18B4
B7: 32C1 monoclonal anti-MUC1* antibody (antibody, V domains shown)
VH: EVKLEESGGGLVQSGGSMKLSCVASGFTFSNYWMNWVRQSPEKGLEWVAEIRLKSNNYAIHYAESVKGRFTISRDDSKSSVYLQMNNLRAEDTGIYYCTRVPGLDAYWGQGTLVTVSA
VL: B6 VL with S7T, T25S, H41Y, V51L, S58N, R82S, N96I, K108N
notes: Immunogen PSMGFR N+20/C-27 peptide; also called Antibody 32C1
B8: 29H1 monoclonal anti-MUC1* antibody (antibody, V domains shown)
VH: B6 VH with N30S, T54K, N56T, I57N, T59A, Q67K
VL: DVVMTQTPLSLPVSLGDQASISCRSGQSLVHSNGHTYLHWYLQKPGQSPRLLIYKVSNRFSGVPDRFSGSGSRADFTLKISRVEAEDLGVYFCSQTTHVPWTFGGGTKLEIK
notes: Immunogen PSMGFR N+20/C-27 peptide; also called Antibody 29H1
B9: 1E4 monoclonal anti-MUC1* antibody (antibody, V domains shown)
VH: QVQLQQSGAELVRPGSSVKISCKASGYAFSTYWMNWVKQRPGQGLEWIGQIYPGDSDTNYNGKFKGKATLTADKSSNTAYMQLSSLTSEDSAVFFCARGNHASMDYWGQGTSVTVSS
VL: B8 VL with G26S, H35N, R50K, R73G, A74T, T96K
notes: Immunogen PSMGFR N+20/C-27 peptide; also called Antibody 1E4
B10: 20A10 monoclonal anti-MUC1* antibody (antibody, V domains shown)
VH: EVMLVESGGGLVKPGGSLKLSCAASGFTFSTYAMSWIRQTPEKRLEWVASIGRAGSTYYSDSVKGRFTISRDNVRNILYLQMSSLRSEDTAMYYCARGPIYNDYDEFAYWGQGTLVTVSA
VL: NIMMTQSPSSLAVSAGEKVTMSCKSSQSVLYSSNQKNYLAWYQQKPGQSPKLLIYWASTRESGVPDRFTGSGSGTDFTLTISSVQAEDLAVYYCHQYLSSLTFGAGTKLELK
notes: Immunogen PSMGFR peptide; also called Antibody 20A10
B11: 3C5 monoclonal anti-MUC1* antibody (antibody, V domains shown)
VH: QIQLVQSGPELKKPGETVKISCKASGYTFTNYGMNWVKQAPGKGLKWMGWINTYTGKPTYADDFKGRFAFSLETSASTAYLQINNLKNEDTATYFCARGGLDGYYGYWGQGTTLTVSS
VL: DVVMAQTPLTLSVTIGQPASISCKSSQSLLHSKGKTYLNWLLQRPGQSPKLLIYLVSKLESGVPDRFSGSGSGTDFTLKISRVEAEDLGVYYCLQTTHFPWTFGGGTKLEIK
notes: Immunogen PSMGFR N+9/C-9 peptide; also called Antibody 3C5

Columns and labels:
PSMGFR N+20/C-27 peptide = target: T1, PSMGFR N+20/C-27 peptide; assay: selection of clones on the immunizing peptide
PSMGFR N+9/C-9 peptide = target: T2, PSMGFR N+9/C-9 peptide; assay: selection of clones on the immunizing peptide
[1] = target: T3, N-10 peptide (N-10 PSMGFR); assay: peptide binding, told in legend
[2] = target: T4, PSMGFR peptide (Primary Sequence of the …); assay: selection of clones on the immunizing peptide
[3] = target: T5, C-10 peptide (C-10 PSMGFR); assay: ELISA on peptides
[4] = target: T3, N-10 peptide (N-10 PSMGFR); assay: ELISA on peptides (FIG. 39)
Description: (§1) All monoclonal antibodies were first selected based on their ability to bind to the immunizing peptide. To further elucidate the epitope within that peptide to which the antibody binds, antibodies were tested for their ability to bind to the PSMGFR peptide, the N−10 peptide or the C−10 peptide.

[5] = target: T5, C-10 peptide (C-10 PSMGFR); assay: binding to peptides (ELISA, FIG. 39)
Description: as §1

[6] = target: T3, N-10 peptide (N-10 PSMGFR); assay: peptide binding, told in text

Row | Binder | binding result (PSMGFR N+20/C-27 peptide) | binding result [2] | also measured
1 | B1 | binds | – | –
2 | B2 | – | – | binding result (PSMGFR N+9/C-9 peptide): binds
3 | B3 | – | binds | binding result [1]: binds
4 | B4 | – | binds | binding result [3]: binds
5 | B5 | – | binds | binding result [3]: binds
6 | B6 | – | binds | binding result [3]: binds; binding result [4]: no binding
7 | B7 | binds | – | –
8 | B8 | binds | – | –
9 | B9 | binds | – | –
10 | B10 | – | binds | binding result [5]: no binding; binding result [6]: binds
11 | B11 | – | – | binding result (PSMGFR N+9/C-9 peptide): binds
